The text below walks through data of US20260116958A1 (University of California, published 2026).

Positions count from the first letter of the chain named. Like-named read-outs stand apart in the source and are kept apart here.

The target of assay [1] is T1, active BoNT/G holotoxin (Clostridium botulinum, UniProt Q60393 2-1297).
T1 sequence: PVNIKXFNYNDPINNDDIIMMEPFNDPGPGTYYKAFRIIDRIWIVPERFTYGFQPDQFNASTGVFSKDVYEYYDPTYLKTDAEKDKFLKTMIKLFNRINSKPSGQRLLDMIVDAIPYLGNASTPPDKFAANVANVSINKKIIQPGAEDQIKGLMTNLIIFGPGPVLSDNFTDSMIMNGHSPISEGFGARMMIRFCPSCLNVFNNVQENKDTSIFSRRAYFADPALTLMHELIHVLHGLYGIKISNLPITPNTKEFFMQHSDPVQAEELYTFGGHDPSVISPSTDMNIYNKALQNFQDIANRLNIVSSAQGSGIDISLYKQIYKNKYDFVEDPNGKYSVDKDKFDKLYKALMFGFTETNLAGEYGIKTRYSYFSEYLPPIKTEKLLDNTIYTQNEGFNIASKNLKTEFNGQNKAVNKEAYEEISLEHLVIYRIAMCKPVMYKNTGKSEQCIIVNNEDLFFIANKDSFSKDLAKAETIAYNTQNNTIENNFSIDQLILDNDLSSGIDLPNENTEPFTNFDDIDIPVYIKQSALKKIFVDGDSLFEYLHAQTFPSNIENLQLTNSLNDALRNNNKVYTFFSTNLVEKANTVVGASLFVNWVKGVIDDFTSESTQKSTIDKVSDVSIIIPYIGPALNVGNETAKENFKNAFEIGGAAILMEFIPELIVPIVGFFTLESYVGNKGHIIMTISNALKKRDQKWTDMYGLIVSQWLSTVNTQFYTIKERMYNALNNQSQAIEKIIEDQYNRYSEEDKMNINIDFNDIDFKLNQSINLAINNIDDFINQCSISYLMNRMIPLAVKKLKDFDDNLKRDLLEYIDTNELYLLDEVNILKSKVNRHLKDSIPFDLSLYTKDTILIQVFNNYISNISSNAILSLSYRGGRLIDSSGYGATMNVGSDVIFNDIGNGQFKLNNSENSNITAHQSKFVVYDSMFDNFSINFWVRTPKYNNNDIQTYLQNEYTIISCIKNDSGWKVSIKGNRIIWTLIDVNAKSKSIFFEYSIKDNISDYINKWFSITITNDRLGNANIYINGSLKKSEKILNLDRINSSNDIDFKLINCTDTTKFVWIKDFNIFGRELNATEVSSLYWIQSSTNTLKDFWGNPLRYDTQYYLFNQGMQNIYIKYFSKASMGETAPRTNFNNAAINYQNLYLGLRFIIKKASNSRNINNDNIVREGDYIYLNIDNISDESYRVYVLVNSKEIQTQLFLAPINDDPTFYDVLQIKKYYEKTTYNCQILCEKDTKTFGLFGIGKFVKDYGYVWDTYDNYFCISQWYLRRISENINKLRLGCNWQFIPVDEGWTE
The experiment in a line: KinExA, IgG. On the technique in general: Kinetic exclusion samples the free partner from a solution-phase mixture.

Assay [2] has as its target T1, active BoNT/G holotoxin. In words: KinExA, IgG. The source holds these as a separate data set.
The target of assay [3] is inactive BoNT/G (BoNT/Gi) (Clostridium botulinum) (UniProt Q60393). In words: flow cytometry, scFv on yeast. In general terms: In flow cytometry, cells or beads pass a laser one at a time.
The target is the same in assay [4]. In words: FACS, scFv on yeast.
The target is the same in assay [5]. In words: flow cytometry, scFv on yeast surface.
The target is the same in assay [6]. The experiment in a line: titration on yeast-displayed scFv, flow cytometry, fit y = m1 + m2*M0/(m0+m3).
Assay [7] deals with T2, inactive BoNT/G (BoNT/Gi) (Clostridium botulinum, UniProt Q60393 1-1297).
T2 sequence: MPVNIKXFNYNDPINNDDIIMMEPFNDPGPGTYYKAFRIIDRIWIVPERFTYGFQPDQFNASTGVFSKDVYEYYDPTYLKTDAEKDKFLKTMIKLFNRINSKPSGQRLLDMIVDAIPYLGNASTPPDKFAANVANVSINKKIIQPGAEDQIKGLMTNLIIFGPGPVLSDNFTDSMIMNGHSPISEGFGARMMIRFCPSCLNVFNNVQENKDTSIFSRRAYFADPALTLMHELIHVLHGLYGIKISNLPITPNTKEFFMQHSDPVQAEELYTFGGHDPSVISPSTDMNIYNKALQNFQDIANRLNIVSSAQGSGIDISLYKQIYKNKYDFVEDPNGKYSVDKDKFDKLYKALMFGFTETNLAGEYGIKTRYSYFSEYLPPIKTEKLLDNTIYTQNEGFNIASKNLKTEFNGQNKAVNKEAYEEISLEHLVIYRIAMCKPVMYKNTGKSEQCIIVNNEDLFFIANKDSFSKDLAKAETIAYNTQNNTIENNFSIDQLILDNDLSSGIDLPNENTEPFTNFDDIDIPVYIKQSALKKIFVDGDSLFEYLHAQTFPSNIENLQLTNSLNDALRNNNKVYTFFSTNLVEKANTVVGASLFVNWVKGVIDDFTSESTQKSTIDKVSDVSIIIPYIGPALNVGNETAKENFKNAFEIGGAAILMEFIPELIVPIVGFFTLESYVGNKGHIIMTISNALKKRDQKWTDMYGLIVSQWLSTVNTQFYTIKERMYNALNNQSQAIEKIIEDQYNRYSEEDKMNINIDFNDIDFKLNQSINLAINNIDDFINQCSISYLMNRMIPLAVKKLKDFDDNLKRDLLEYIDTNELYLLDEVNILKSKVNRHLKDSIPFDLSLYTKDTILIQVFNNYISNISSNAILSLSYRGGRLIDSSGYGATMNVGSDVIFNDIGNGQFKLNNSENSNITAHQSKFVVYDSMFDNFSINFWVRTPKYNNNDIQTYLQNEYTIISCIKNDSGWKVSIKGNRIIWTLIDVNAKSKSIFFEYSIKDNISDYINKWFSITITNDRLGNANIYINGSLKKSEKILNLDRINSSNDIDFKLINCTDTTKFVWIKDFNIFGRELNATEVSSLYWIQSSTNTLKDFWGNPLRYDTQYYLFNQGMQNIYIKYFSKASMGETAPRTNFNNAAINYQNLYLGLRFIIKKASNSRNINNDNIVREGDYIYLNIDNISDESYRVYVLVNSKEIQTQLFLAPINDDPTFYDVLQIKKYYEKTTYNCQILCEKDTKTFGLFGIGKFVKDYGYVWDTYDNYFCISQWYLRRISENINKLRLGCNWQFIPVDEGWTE
Described as above.

Assay [8] deals with T2, inactive BoNT/G (BoNT/Gi). In words: FACS, scFv on yeast.
The target in assay [9] is inactive BoNT/G (BoNT/Gi) (Clostridium botulinum) (UniProt Q60393). In words: scFv on yeast surface.

The term Kd denotes the equilibrium constant for the complex coming apart.

B1: Hu6G10 IgG (antibody, V domains shown)
VH: QVQLVQSGAEVKKPGATVKISCKASGYSFTGYFMHWVRQAPGKGLEWIGRINPYNGDIIYNQNFKDRATLTVDKSTSTAYMELSSLRSEDTAVYYCASLFGLYYFDYWGQGTTLTVSS
VL: DVVMTQSPSSVSASVGDRVTITCRASQRISNHLNWYQQKPGKAPKRLIYAASSLESGVPSRFSGSGSGTEFTLTISSLQPEDFATYFCLQHNSYPYTFGQGTKVEIKR
Take B1: the “fold improvement over 6G10 (IgG KD)” value with active BoNT/G holotoxin [1] worked out at 39 fold. In addition, the affinity in the assay with active BoNT/G holotoxin [2], expressed as Kd, was 0.00836 nM.

B2: hu6G9B10 scFv (scFv)
scFv: QVQLVQSGAEVKKPGASVKMSCKASGYTFTSYWMHWVRQAPGQGLEWIGYINPSTGYTEYNQKFKDRATLTADKSTSTAYMELRSLRSDDTAVYYCARGGNYVDYWGQGTTLTVSSVDLKSGGSTSDSGKPGSGEGSSGSARDIQMTQSPSTLSASVGERVTITCRASQDISSWLAWYQQKPGKAPKRLIYAVSTLQTGVPSRFSGSGSGTDLTLTINSLQPEDFATYYCQDLNSYPLTFGGGTKVEVK
As for B2, in [3], the Kd amounted to 2.35 nM and the fold improvement in affinity over hu6G9 WT is 9 fold.

B3: Hu6G9.1 scFv (scFv)
scFv: B2 scFv with I48V, D127G, Q169H, D170G, G206D, T239S, V248I
B3 yielded a Kd in assay [4] of 2.04 nM. Besides, the fold improvement over wild type hu6G9 in assay [5] came to 9 fold. Also, the fold improvement in affinity over hu6G9 WT in assay [3] was 9 fold.

B4: hu6G7.1A5 (scFv, V domains shown)
VH: QVQLVQSGAEVKKPGASVKVSCKASDYSFTDYNIYWVRQAPGQGLEWIGYIDPYNGGTSYNQKFKGRATLTVDKSISTAYMELSRLRSDDTAVYYCALYGYDPDYIDYWGPGTTLTVSS
VL: DIVLTQSPASMAASPGQRVTITCSASSSVSYLHWFQQKPGQSPKLMIYGTSNLASGVPVRFSGSGSGTSYSLTINPMEAEDTATYYCQQRSSYPYTFGQGTKLEIK
As for B4, the Kd in assay [6] was 4.91 nM.

B5: hu6G7.1D6 (scFv, V domains shown)
VH: B4 VH with L4P, F64Y, K65R, S77N, D107E, P111Q
VL: B4 VL with M46W, G49S, V59A, S69D, S71T
For the molecule B5, the Kd in [6] turned out to be 5.03 nM.

B6: Hu6G7.1 scFv (scFv, V domains shown)
VH: B4 VH with A40T, P111Q
VL: DIVLTQSPASMAVSPGQRVTITCSASSSVSYLHWFQQKPGQSPKLWIYSTSNLASGVPARFSGSGSGTDYTLTINPMEAEDTATYYCQQRSSYPYTFGQGTKLEIKR
B6: the Kd in [7] and in assay [8] was 3.2 nM in each case.

B7: hu6G6 scFv (scFv)
scFv: QVQLVQSGAEVKKPGASVKLSCKASGFNIKDTYMHWVRQAPGQGLEWIGRIDPANGNTKYDPKFQGRATITADTSINTAYLELSRLRSDDTAVYYCASGPNYYGTTWFAYWGQGTTVTVSSVDLKSGGSTSGSGKPGSGEGSSGSAREIVLTQSPSTLSASVGDRVTITCRASHGISNYLAWYQQKPGRAPKLLIYKASTLHIGVPSRFSGSGSGTEFALTISSLQPDDFSTYYCQQYNSYLPHTFGQGTRLEIK
With B7, the figures for the Kd in assay [4], in assay [9] and in assay [3] were 23 nM, 5 nM and 23.2 nM, respectively. The fold improvement over parental 6G6 in [9] was greater than 3 fold.

B8: hu6G6.1 IgG (antibody, V domains shown)
VH: QVQLVQSGAEVKKPGASVKLSCKASGFNIKDTYMHWVRQAPGQGLEWIGRIDPENGNTKYDPKFQGRATITAYKSINTAYLELSRLRSDDTAVYYCASGPNYYGTTWFAYWGQGTTVTVSS
VL: EIVLTQSPSTLSASVGDRVTITCRASHGISNYLAWYQQKPGRAPKLLIYKASTLHIGVPSRFSGSGSGTEFALTISSLQPDDFSTYYCQQYNSYLPHTFGQGTRLEIKR
Take B8: in the assay with active BoNT/G holotoxin [1], the Kd is 0.476 nM and the “fold improvement over hu6G6” value is 18 fold. The molecule further showed a Kd with active BoNT/G holotoxin [2] of 0.47 nM.

B9: 6G9A2 (scFv, V domains shown)
VH: QVQLVQSGAEVKKPGASVKMSCKASGYTFTSYWMHWVRQAPGQGLEWIGYINPSTGYTEYNQKFKDRATLTADKSTSTAYMELRSLRSDDTAVYYCARGGNYVDYWGQGTTLTVSS
VL: DVVMTQSPSFLSASVGDRVTVTCRASQSIGSWLAWYQQKPGKAPKLLIYAASSLQSGVPSRFSASGSGTDFTLTISSLQPDDFATYFCHRLNSYPLTFGGGTKVEIK
In the case of B9, the Kd in [6] was found to be 6.2 nM.

B10: 6G9B9 (scFv, V domains shown)
VH: B9 VH
VL: DIQMTQSPSTLSASVGERVTITCRASQGISSWLAWYQQKPGKAPKRLIYAVSTLQTGVPSRFSGSGSGTDLTLTINSLQPEDFATYYCQHLNSYPLTFGGGTKVEIK
On to B10, for which the Kd in assay [6] came to 3.78 nM.

B11: Hu6G11.3 scFv (scFv, V domains shown)
VH: B9 VH with K12A, R84S, D89E, G100Y, N101F, Y102S, V103F, D104A, T111L, L112V
VL: EIVLTQSPSTLSASIGDRVTITCRASEGIYHWLAWYQQKPGKAPKLLIYKASSLASGAPSRFSGSGSGTDFSLTISSLQPEDSATYFCQQAHSFPPTFGGGTKVDIKR
Take B11: the dissociation constant Kd in assay [8] was found to be 0.32 nM.
